Results: the supplement of paper PMC10126150
± gives the standard deviation of the averaged measurements.

What follows are sequences tested on ATP (assay: switch fluorescence ratio, 500 uM ATP over buffer (Cy3 cluster intensity, sum of 5 cycles each) (fold (ratio)); higher = stronger signal-on switching upon ATP binding; sequences stand for … in TCGTCGGCAGCGTCAGATGTGTATAAGAGACAGTTTTTTTTTTTTTTTTTTTTTTTTT…TC). Conditions: aptamer strand: ATP DNA aptamer (quencher-CACCTGGGGGAGTATTGCGGAGGAAGG + anchor), 100 nM annealed; ATP concentration: 500 uM.
Summary of the method: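 The quencher-labelled ATP aptamer, at 100 nM, was annealed to Cy3-labelled switching-strand clusters on a modified Illumina MiSeq flow-cell. The clusters were imaged in selection buffer, then after 15 min with 500 uM ATP at 22 °C, and this buffer/ATP cycle ran five times with NaOH stripping and re-annealing between runs. Per-cluster fluorescence ratios, summed target-cycle over summed buffer-cycle Cy3 intensity, were averaged per switch-domain sequence. Clusters outside 100-1000 RFU were excluded.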
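Further: ATP exposure 15 min at 22 °C before imaging.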

Sequence | switch fluorescence ratio
TTATTATGCC | 1.02 ± 0.061
CAATAGGCGC | 1.01 ± 0.021
GAGCTAAGCT | 0.981 ± 0.018
ATAGTGTGTT | 0.989 ± 0.021
TTAACTTGGG | 0.976 ± 0.013
TCATCGGGGT | 0.994 ± 0.023
CGTCTACATG | 1.03 ± 0.027
TTCTTAGAAA | 0.991 ± 0.019
GAGATTTAGT | 0.973 ± 0.049
TAGATGGGGT | 1.01 ± 0.031
GGATTTGAGT | 0.976 ± 0.015
TCGGGTCAGT | 1 ± 0.034
GGCAGAAAAT | 1.01 ± 0.032
AGTATATGTG | 0.955 ± 0.023
CATGTTAGGG | 1.01 ± 0.033
AGGCCGATGG | 0.983 ± 0.021
TAAGATGGAG | 1 ± 0.021
ACTGATGAAG | 0.991 ± 0.049
GGTCGAGTGG | 0.988 ± 0.0032
ATGCATGGTT | 1.02 ± 0.054
GGGGGTTGCG | 0.979 ± 0.015
GCCTAGGCGG | 1.01 ± 0.062
CAAATTGGTG | 1.083 ± 0.0018

Sequence | switch fluorescence ratio
GATCGGGGGA | 1.02 ± 0.015
GTGCGATTTA | 0.992 ± 0.034
AGGGTGATTA | 1.01 ± 0.018
ACCGGGGTTA | 0.986 ± 0.033
ACGTCCGATC | 1.11 ± 0.039
GGGGTCAGGT | 1 ± 0.024
CATGGAGAGG | 1.02 ± 0.0086
ATGTCCGGGT | 1.03 ± 0.032
GATACTTTTT | 1.01 ± 0.029
CTGCTCTGGG | 1.02 ± 0.017
AGGTTGGGTT | 0.997 ± 0.023
CATTTTATTT | 0.996 ± 0.032
GAAGGGCGTT | 0.98247 ± 0.00082
TTTACAATCG | 0.9899 ± 0.0098
AGTTATCGAC | 1.01 ± 0.021
CAAGGGCCCA | 0.994 ± 0.014
TTTCCTTGAA | 0.974 ± 0.017
GCCGGGATGC | 1.1 ± 0.11
GACCGGCGTC | 1.02 ± 0.017
ATAGTTGGC | 1.04 ± 0.07
GCCGGGACGG | 0.965 ± 0.022
GGACTTAATG | 1.02 ± 0.016
TCGGAATGGC | 1.27 ± 0.23

Sequence | switch fluorescence ratio
CAGGGGGGGT | 1.03 ± 0.061
ACGGGTTAGA | 1.02 ± 0.036
AAATCTGGGT | 0.97 ± 0.013
TGAGTTAGAG | 1.02 ± 0.026
TTACTGTGTT | 1 ± 0.034
ACATATTTGA | 1.01 ± 0.03
GAAGCTCCTG | 0.996 ± 0.0043
GCGCGCACAT | 1.01 ± 0.048
ATTTGAGGGG | 0.998 ± 0.035
CGTTCATTAG | 1.003 ± 0.0076
AAGGGGGTAC | 1.38 ± 0.77
GCTCGTGATA | 1.21 ± 0.05
TTTTAGCAGA | 1.06 ± 0.016
GGGTTAAAGG | 1 ± 0.015
TTGTTAGAAT | 1.038 ± 0.0047
TAGCTCGTTT | 0.995 ± 0.038
CAATAGGGGG | 1 ± 0.027
TTTTAAAGTC | 1.02 ± 0.03
TATTTATGTT | 0.995 ± 0.031
TGGTAGTGCT | 1.01 ± 0.018
GGTTCTTAGG | 1.01 ± 0.032
GGCCGGTTGC | 1.03 ± 0.071
TTTTGGTAAC | 1.014 ± 0.0072

Sequence | switch fluorescence ratio
TTTTAACTGT | 1.01 ± 0.038
CAGTTTATGA | 0.971 ± 0.039
TGAAAAAGTG | 0.9941 ± 0.0077
TCGGGGCACG | 0.993 ± 0.052
CGATCGGTCA | 1.0097 ± 0.00057
GACTGTCGAG | 0.991 ± 0.027
GCTTGGACGG | 1.02 ± 0.055
AGGGTTTTCG | 0.972 ± 0.022
CAGGGGGGGG | 1.01 ± 0.031
TACTGATTTG | 1.02 ± 0.017
TTCTTTGTTT | 1.01 ± 0.024
TATCCAGGGA | 1.026 ± 0.0046
GTTGTGGCTC | 0.975 ± 0.036
GGAGGAAGAT | 1.047 ± 0.0093
TTGTAAACGA | 1.01 ± 0.042
TGCGGCTGGG | 0.978 ± 0.019
CGAGGGGGAT | 1.19 ± 0.27
TTGGGGTTTA | 1.03 ± 0.026
CGGTGAATAT | 0.9712 ± 0.0087
TACCTTTTAA | 1.02 ± 0.026
GATGGGGAGT | 0.9715 ± 0.0057
AGCTGCCCCA | 1.18 ± 0.13
ATGGGAGGCG | 0.982 ± 0.043

Sequence | switch fluorescence ratio
TCACAAGTTG | 1.01 ± 0.019
TCATCTACAG | 1.02 ± 0.013
TAGGGCTTAA | 0.993 ± 0.042
ATGCGCACGG | 1.064 ± 0.009
GTGGGGGTAT | 1.05 ± 0.15
TGGTTTTTGG | 0.989 ± 0.018
TCGAAGAGCG | 0.976 ± 0.045
CGAAGAGGTT | 0.98936 ± 0.00044
GTTTGAGCAC | 1.02 ± 0.023
GATACGTGGG | 0.9702 ± 0.0065
TGGGAAAGCG | 1 ± 0.024
CAAAACGTAG | 1.01 ± 0.025
CTAATGGACA | 1.01 ± 0.025
GGGTCTGTTG | 0.975 ± 0.013
CCGGGAAGGG | 1.05 ± 0.012
ATGGGATGGC | 0.97 ± 0.031
CAGGGTACGC | 1.04 ± 0.016
ATCAGAAGGT | 0.995 ± 0.021
TGTACTATGG | 1.01 ± 0.04
AACGGGAGGG | 1.04 ± 0.011
CTCACGACGT | 1.07 ± 0.019
GGACTCTAGG | 0.979 ± 0.027
GATGTTGTTT | 1.03 ± 0.056

Sequence | switch fluorescence ratio
CGGGATGTAG | 0.987 ± 0.026
CGGGGGACT | 1.61 ± 0.85
TGCCCGCCGT | 1.03 ± 0.067
TAAAGAAAGC | 0.9755 ± 0.0029
GAAACGGGGG | 1.013 ± 0.009
TGTTGAGTGT | 0.962 ± 0.017
ATCTGGGTTA | 0.993 ± 0.013
CCCGAAGGGC | 1.01 ± 0.081
TATTTTGGAG | 0.985 ± 0.035
GGGGGAGGGA | 0.997 ± 0.04
TGGGTTCGGA | 0.985 ± 0.023
ATATATTTAG | 0.996 ± 0.012
CTAATAATCG | 1 ± 0.015
AAGACCTTAT | 1.05 ± 0.011
TGTGTTTGGG | 0.987 ± 0.038
AGGTCGGCAA | 1.02 ± 0.014
CGTATATGGG | 0.995 ± 0.022
GGGGGGGACC | 0.999 ± 0.017
GGAGGGGGCG | 0.999 ± 0.061
AACTAGGTGT | 1.15 ± 0.22
CTTCTAGGCA | 1.04 ± 0.032
CAGATAATAT | 1.04 ± 0.022
TGTGGGCATT | 1.019 ± 0.0053

Sequence | switch fluorescence ratio
AAGCGGTTAA | 1.011 ± 0.0022
TGTTGATAGG | 0.982 ± 0.02
ATGTGCGTAG | 1.01 ± 0.017
TGGTACATTA | 1.34 ± 0.46
GAGTAAGCGG | 1.01 ± 0.048
ACTATGGGGG | 0.995 ± 0.036
GCTTTAAGTA | 0.992 ± 0.044
CGTGTAATTC | 1.03 ± 0.1
AGAGGGTCCT | 1.03 ± 0.034
AATGGATACT | 1.03 ± 0.012
CGGGGCGCGA | 1.1 ± 0.049
ATTTTATACA | 0.996 ± 0.03
GATGTGATTA | 0.982 ± 0.039
GGCTAGCCAG | 1.01 ± 0.011
GGTTTTTTTT | 0.992 ± 0.03
CGGGGTAGGT | 0.984 ± 0.027
TACTTTAGGT | 1.05 ± 0.019
GACGGAGACC | 1.11 ± 0.027
TTTTAAGGGT | 0.999 ± 0.036
